Data published in US20240132595A1.

Columns and labels:
[1] = molecular target: canine MHC Class I DLA-12 antigen (canine (Canis lupus familiaris)); experiment: flow cytometry on canine PBMCs [E]
[2] = molecular target: canine MHC Class I DLA-12 antigen (canine (Canis lupus familiaris)); experiment: flow cytometry on cells of CLBL-1 xenograft tumours (PBS group) [B]

FITC-H subset (percent of cells in the positive gate) [1] [%] | FL1-H (percent of cells in the positive gate) [2] [%] | FITC-A (percent of cells in the positive gate) [2] [%] | Binder
59.4 | 89.4 | – | cLy-m10C5 (antibody, V domains shown) VH: EVQLQQSGPELVKPGASVKISCKASGYTFTDYNMHWVKQSHGKSLEWIGYIYPYNGGTDYNQKFKSKATLTVDNSSSTAYMELRSLTSDDSTVYYCARGGLVGAMDYWGQGTSVTVSS VL: DIQMTQSPASLSASVGETVTITCRASGNIHNSLAWYQQKQGKSPQLLVYNAKTLPDGVPSRFSGSGSGTQYSLKINSLQPEDFGSYYCQHFWSIPWTFGGGTKLEIK
– | – | 98.7 | cLy-c10C5 (antibody, V domains shown) VH: EVQLQQSGPELVKPGASVKISCKASGYTFTDYNMHWVKQSHGKSLEWIGYIYPYNGGTDYNQKFKSKATLTVDNSSSTAYMELRSLTSDDSTVYYCARGGLVGAMDYWGQGTSVTVSS VL: DIQMTQSPASLSASVGETVTITCRASGNIHNSLAWYQQKQGKSPQLLVYNAKTLPDGVPSRFSGSGSGTQYSLKINSLQPEDFGSYYCQHFWSIPWTFGGGTKLEIK
